The test system of this data set is CO/N=C(\C(=O)N[C@@H]1C(=O)N2C(C(=O)O)=C(COC(C)=O)CS[C@H]12)c1csc(N)n1. In words: purified protein. The following applies: 27°C, cefotaxime 12.5-200 μM, enzyme 5–70 nM.

As to “TEM-1 ß-lactamase (TEM-1) (Escherichia coli)”, the Km was 1,500 ± 900 μM, the kcat was 1 ± 0.5 s⁻¹ and the kcat/Km came out at 680 ± 530 M⁻¹ s⁻¹.

Values taken from PMC7716773, “Known Evolutionary Paths Are Accessible to Engineered ß-Lactamases Having Altered Protein Motions at the Timescale of Catalytic Turnover” (Frontiers in Molecular Biosciences, 2020).
